Measured values: the Human Domainome abundance scans (Beltran et al. 2025)

B1: KAT8 regulatory NSL complex subunit 2, residues 28 to 91; numbered along this chain, Q9H9L4 (parent)
chain: CAFTHRPCSHPRLEGQEFCIKHILEDKNAPFKQCSYISTKNGKRCPNAAPKPEKKDGVSFCAEH
B2: Androgen receptor, residues 557 to 632; numbered along this chain, P10275 (parent)
chain: QKTCLICGDEASGCHYGALTCGSCKVFFKRAAEGKQKYLCASRNDCTIDKFRRKNCPSCRLRKCYEAGMTLGARKL

Variants of: B1
Experiment: abundance fitness (aPCA) (normalised: wild type 0, dead -1); higher = more abundant; growth selection in yeast, the domain comes from the species named
Settings: Homo sapiens

Abundance fitness, by site and new letter:
G57: S -0.372, D -0.138
V58: F -0.063, I -0.048, N -0.178, C 0.012, E -0.057, A -0.018, K -0.037, L -0.046, D 0.009, G -0.138, S -0.088, P -0.098, M -0.018, Y -0.046, T -0.1, W -0.121, R -0.082, Q 0.019
E63: L -0.17, D 0.003, V -0.175, I -0.223, Q -0.175, R -0.024, M -0.165, N -0.062, P -0.188, G -0.034, F -0.107, C -0.111, S -0.093, T -0.054, W -0.086, A -0.064, H 0.136, K -0.09, Y -0.138
C61: I -0.499, Q -0.44, R -0.56, N -0.449, T -0.356, V -0.426, S -0.432, H -0.447, F -0.722, A -0.483, G -0.393, Y -0.585, E -0.399, W -0.667, K -0.436, M -0.573
H64: E -0.877, S -0.315, K -0.509, L -0.602, D -0.324, W -1.55, T -0.33, Q -0.463, I -1.02, P -0.401, N -0.441, R -0.427, M -0.333, V -0.534, A -0.582, Y -0.781
D56: Y -0.148, T -0.057, W -0.305
S59: L -0.037, H -0.157, M -0.084, C -0.089, Q -0.045, F -0.062, R -0.12, N -0.189, A -0.056, G -0.024, T -0.036, I -0.006, W 0.01, P -0.141, V -0.095, Y -0.048, E -0.243
A62: Y -0.198, H -0.081, M -0.103, T -0.065, V -0.059, P -0.065, L -0.087, K 0.095, E -0.101, W -0.088, I -0.057, G -0.078, F -0.111, D -0.093, R -0.028, N -0.105, Q -0.057, S -0.055, C -0.018

Variants of: B2
Experiment: as above
Settings: Homo sapiens

Abundance fitness of substitutions, site by site:
T3: H -0.225, A -0.081, S -0.059, N 0.035, D -0.171, E -0.148, P -0.229, L -0.035, I 0.009, R -0.083, K -0.252, W -0.115, Q -0.04, Y -0.003, V -0.245, G -0.078, C 0.014
C4: K -0.87, E -0.563, M -0.679, G -0.61, W -0.964, R -0.114, H -0.851, Y -0.884, L -0.745
Q1: S -0.058, M 0.007, V 0.06, I 0.198, N -0.053, C -0.019, D 0.071, K 0.076, P -0.439, L -0.027, Y 0.172, H -0.504, G 0.048, R -0.228, W -0.032, T 0.106, A -0.144, F 0.16
L5: Q -0.113, E -0.071, F -0.078, C -0.07, G -0.189, K -0.053, D -0.065, M -0.212, I -0.04, H -0.137, P -0.296, N -0.058, A -0.109
